# According to patent US20160311918A1, “Anti-Ron Monoclonal Antibodies as a Cytotoxic Drug Delivery System for Targeted Cancer Therapy” (TEXAS TECH UNIVERSITY SYSTEM, priority 2013, published 2016):
# Columns and labels:
# [1] = system: HT29, HCT116, and SW620 cells; assay: Cell cycle analysis by flow cytometry; type: cell-based, human; conditions: 5 μg/ml
# three CRC cell lines = assay: Cell viability, three CRC cell lines together; conditions: 72 h after treatment
# Description: Cell viability and death assays: Cell viability 72 h after Zt/g4-DM1 treatment was determined by the MTT assay (22). Viable or dead cells were determined by the trypan blue exclusion assay. A total of 900 cells were counted from three individual wells to reach the percentages of dead cells.
# [2] = In vivo toxicity in athymic nude mice; parameters: species or system mouse
# Description: FIGS. 6A to 6C show the toxicity of Zt/g4-DM1 in vivo. Body weight was measured every four days during the period of Zt/g4-DM1 treatment. FIG. 6A: Effect of multiple doses of Zt/g4-DM1 on mouse body weight was determined by administration of Zt/g4-DM1 at 1, 3, 7, 10, 15 mg/kg every four day with a total of 5 injections. Mice were weighed and monitored for a total of 31 days. FIG. 6B: Effect of a single dose of Zt/g4 at 20 mg/kg on mouse body weight was determined using mice bearing HT29, HCT116, or SW620-derived tumors. Body weight was monitored up to 28 days. FIG. 6C: Effect of high doses of Zt/G4-DM1 on mouse body weight was analyzed by tail vein injection at 20, 40 and 60 mg/kg to Balb/c mice. Mice were euthanized at day 21. In all cases, the average body weight of mice before Zt/g4-DM1 injection was 19.8±3.6 grams (5 mice per group) and set as 100%;
# In vivo toxicity studies: Acute toxicity with maximum tolerated dose was determined in Balb/C mice (four mice per dose) by a single tail vein injection of Zt/g4-DM1 at 20, 40, and 60 mg/kg body weight. Toxicity associated with different therapeutic doses was evaluated in athymic nude mice bearing HT29 tumor xenograft (five mice per dose). […] Toxicity was assessed by observing mouse behavior, weight loss, and survival.
# Toxic effect of Zt/g4-DM1 on mice. Three studies using two different types of mice were performed to study Zt/g4-DM1 on animal behavior and body weight. The first study addressed the impact of multi-doses of Zt/g4-DM1. Athymic nude mice were injected five times with 1, 3, 5, 7, 10, 15 mg/kg of Zt/g4-DM1 and monitored every four days for a total period of 31 days. […] The second study observed the effect of a single dose of Zt/g4-DM1 at 20 mg/kg in nude mice bearing tumors derived from HT29, HCT116, and SW620 cells. […] The third study involved a single-dose injection of Zt/g4-DM1 at 20, 40, and 60 mg/kg in Balb/c mice monitored for 24 days (FIG. 6C). […] Also, a moderate reduction of about 6% body weight was observed within the first four days after 60 mg/kg Zt/g4-DM1 injection. […]
# [3] = system: human pancreatic cancer cells; assay: PDAC cell viability in combination with chemotherapeutics; type: cell-based; conditions: in vitro, chemotherapeutics including gemcitabine
# Description: In vitro cell viability and death assays: Cell viability after treatment of Zt/g4-DM1, chemotherapeutics, and their combinations was determined by the MTT assay. Cell death was determined by the trypan blue exclusion assay.
# FIGS. 10A to 10D are graphs that show the effect of Zt/g4-DM1 on pancreatic cancer cell cycle, viability, and apoptotic death. […] FIG. 12 are graphs that show synergism between Zt/g4-DM1 and chemotherapeutics by isobolograms.
# [4] = five injections of 1, 3, 5, 7, 10, 15 mg/kg, 31 days
molecule,measurement,setting,value
"Zt/g4-DM1: anti-RON mouse mAb Zt/g4 conjugated to maytansinoid DM1 via non-reducible thioether linkage (SMCC), DAR about 4:1 (conjugate) VH: EVQLQQSGAELVKPGASVKLSCTTSGFNIIDTYIHWVNQKPDQGLEWIGRIDPADGNRKSDPKFQVKATITVDTSSNTAYLQLSSLTSGDTAVYYCARGYGNLNAMDSWGQGTSVTVSS VL: DIQMNQSPSSLSASLGDTITITCHASQNINVWLNWYQQKPGNIPKLLIYKASNLHTGVPSRFSGSGSGTGFTLTISSLQPEDIATYYCQQGQSYPLTFGGGTKLEIK",time at which cell cycle profile changes were observed,[1],≤ 3 h
same,effect on cell cycle,[1]; three CRC cell lines,dramatic increase in G2/M phase
same,reduction in cell viability,three CRC cell lines,More than 80%
same,average body weight,[2]; [4],comparable to that of control mice with no differences
same,mouse behavior,[2]; [4],behaved normally
same,behavior and body weight,"[2]; single dose 20 mg/kg, tumor-bearing nude mice",No changes in behavior or body weight were observed
same,combination effect with chemotherapeutics on PDAC cell viability,[3],synergistic effect
